Laboratory results published in the DeepSol protein solubility set.

Test: soluble on expression in E. coli; label from the status in PepcDB or PDB records

Row | Sequence | soluble on expression in E. coli
1 | MGSDKIHHHHHHLPALPHIPIPVNFEEYCQQKAAPPGSSTYYALRQAPAASQPLLTALFALRREFEETVKETSDPTIGRTKLAWWQNEIAALASDSPSHPVSKALAAYLPDVKTEYPALQTLLAGFEMDLDQARYLDYPNLRRYVQGVGGTFASLVARATAKDAAQASNWSAPLGEALMLAQFVVETGHDARHGRIYIPIDEMQRFNVTAADLINRKYTEAFTELMRFETKRARDALQSALGAVPGSERRTQRTLVAQAALASALLDEIERDGYHVLHQRIALTPIRKLWIAWRAK | not soluble
2 | MIRLNVFVRVNETNREKAIEAAKELTACSLKEEGCIAYDTFESSTRRDVFMICETWQNAEVLAAHEKTAHFAQYVGIIQELAEMKLEKFEF | soluble
3 | MSLEFQLDLIRGEHMEIEKLLEQVNWEKNNGIVPVIVQDEKGEVLTLAYMNKEALRKTLETGIAHYYSRSKGRIRMKGEVSGNIQTVKEIKIDCDNDALLLIVSPKGPACHTGNYSCFYRKLGEPERVLPIDYSLSILKELEEIIKRRKETPVEGSYTSKLFKEGREKIYKKFGEEAIEVLVAEKRERIIYEVADLLYHLLVLLTYNDISLGEVMNELRRRRKEGHHHHHH | soluble
4 | SQAPHKEHLYKLLVIGDLGVGKTSIIKRYVHQNFSSHYRATIGVDFALKVLHWDPETVVRLQLWDIAGQERFGNMTRVYYREAMGAFIVFDVTRPATFEAVAKWKNDLDSKLSLPNGKPVSVVLLANKCDQGKDVLMNNGLKMDQFCKEHGFVGWFETSAKENINIDEASRCLVKHILANECDLMESIEPDVVKPHLTSTKVASCSGCAKS | soluble
5 | TTYKHSLQDLTAQRSLGAIPFAGRYRLIDFMLSNMVNADIRSVAIFPKYRYRSLMDHLGAGKEWDLHRKKDGLFFFPSPHLHHEYDEFGSFRQFSDHLDYFHRSTQQYAVISNSHTVCNIQFQYVLKRHQEVGCDVTEVFQDGQSLQIYIMSTTLLKDLIYGHSEKGYKTIQEAVEKESSALTICPYEYSGYAAVIDSVEKYYTHSMELIQPRFWQQVFLPQQPIYTKVKDEPPTKYGKHSTVKNSLVANGCVLEGEVENCILFRAVHVGKGTKLKNCIIMQKTQIGEDCLLEQVISDKDVKIGKATEAAGTAEQPLVLRKGLVQGE | not soluble
6 | EAHQIRRSGNYQPALWDSNYIQSLNTPYTEERHLDRKAELIVQVRILLKEKMEPVQQLELIHDLKYLGLSDFFQDEIKEILGVIYNEHKCFHNNEVEKMDLYFTALGFRLLRQHGFNISQDVFNCFKNEKGIDFKASLAQDTKGMLQLYEASFLLRKGEDTLELAREFATKCLQKKLDEGGNEIDENLLLWIRHSLDLPLHWRIQSVEARWFIDAYARRPDMNPLIFELAKLNFNIIQATHQQELKDLSRWWSRLCFPEKLPFVRDRLVESFFWAVGMFEPHQHGYQRKMAATIIVLATVIDDIYDVYGTLDELELFTDTFKRWDTESITRLPYYMQLCYWGVHNYISDAAYDILKEHGFFCLQYLRKSVVDLVEAYFHEAKWYHSGYTPSLDEYLNIAKISVASPAIISPTYFTFANASHDTAVIDSLYQYHDILCLAGIILRLPDDLGTSYFELARGDVPKTIQCYMKETNASEEEAVEHVKFLIREAWKDMNTAIAAGYPFPDGMVAGAANIGRVAQFIYLHGDGFGVQHSKTYEHIAGLLFEPYA | soluble
7 | GSGMKETAAAKFERQHMDSPDLGTTLLEQYCHRTTIGNFSGPYTYCNTTLDQIGTCWPQSAPGALVERPCPEYFNGIKYNTTRNAYRECLENGTWASRVNYSHCEPILDDFQRKYDLHY | soluble
8 | MQTKEKLASLSYLAVKSLLYELNLTPKPGLVDCHNNGAHNDMDFYTFLDSILSLSPFFKKYIEVGWLYHNESPQYLFNQLRKLGIEAEAAMFSATERVNTHKGINFSFALLLGATGSYLAKHIELIQEKRRFMPQDSLTICHLAGEMSMHLIQNDLSHVETKRNLTYGEKLFLQYGLKGLRGEASQGYPSLTQKALPFFRNELLKKQDIQISQLKLLLYLMTFIEDSNIIHRGGIKSWKKVQQEAQTLLEKDLPPYQLKEQLNSYNQILTDRHLSPGGAADLLSLTLYFSFLEQLI | not soluble
9 | MAIPAFHPGELNVYSAPGDVADVSRALRLTGRRVMLVPTMGALHEGHLALVRAAKRVPGSVVVVSIFVNPMQFGAGGDLDAYPRTPDDDLAQLRAEGVEIAFTPTTAAMYPDGLRTTVQPGPLAAELEGGPRPTHFAGVLTVVLKLLQIVRPDRVFFGEKDYQQLVLIRQLVADFNLDVAVVGVPTVREADGLAMSSRNRYLDPAQRAAAVALSAALTAAAHAATAGAQAALDAARAVLDAAPGVAVDYLELRDIGLGPMPLNGSGRLLVAARLGTTRLLDNIAIEIGTFAGTDRPDGYRA | soluble
10 | HHMSAIKPDMKINLRMEGNVNGHHFVIDGDGTGKPFEGKQSMDLEVKEGGPLPFAFDILTTAFHYGNRVFAEYPDHIQDYFKQSFPKGYSWERSLTFEDGGICIARNDITMEGDTFYNKVRFHGVNFPANGPVMQKKTLKWEPSTEKMYVRDGVLTGDITMALLLEGNAHYRCDSRTTYKAKEKGVKLPGYHLVDHCIEILSHDKDYNKVKLYEHAVAHSGLPDNARR | soluble
11 | MGSDKIHHHHHHMTEDNNLGLEFKYLIVNDMDRKFGLWVNTVGYQSIPPDSPYPLKEHPSGYYFNAEKGRVLREYQLVYITKGRGLFSSDSTPERQVCKGRLMVLFPGQWHTYYPLRQTGWTEYYIGFEGPAIDTIVGDAFLSQERQILEVGINEELVSLFSRALEVAEADKISAQQYLSGIVLHMIGMILSISKNKVFEMSDVDQKIEQAKILMNENVSGNIDPEELAMRLNISYSWFRRVFKEYTGYAPAKYFQELKLRKAKQMLVGTSQSVKEISFFLGFQSTEYFFSFFKKRTGLTPLEYRSFGREE | not soluble
12 | MSLELLSKLETKIQATLETIELLKMELEEEKQKTSTLSEQNNQLIEQNQQLQQELTSWNEKVTGLVGLLNSEI | soluble
13 | TGFNYFQYNITNSLNASYGPSQEGNQTDFYAGAVQLQQTVVQLDVDRGLEVGLASPLNVAAGALFRADNYQLKAGEEASWAGFENPPWGINQNGGTPAPGAQVFPGFRPEQEVDETRTNIGTYVDLQADLIDPLQVNIAGRFENYSDFGSTVNGKVALRFEPVSQLAFRGTAQTGYRAPNQAQKFFSKVSTTFIDNQPVQTGIFRINSDVGNALGIPDLE | not soluble
14 | SNAMLSANQIKFLRSLRERKYRLREQAFAVEGPKLVGEMLPFYRCRMLVGTAAMLRAVSTPHDAEVVELPESFDFKRISTQTTPQPLMAVFDLPAEPEPVVEGLTLLLDGVQDPGNVGTILRTADWFGIRHVWLGTGSADVFSPKVVQASMGALARVQPTPLKNTVDTLAYFRRQGIPVYGAFLDGQSLYEAPLPNFTEPAILVLGSEGRGISPEVAAEITDRLTIPASGLSVKGHTESLNVAIATAILCSEWRRRS | soluble
15 | MGSDKIHHHHHHMNELVSIITPCYNSAATIRETIRSVIAQSYVNWELLIIDDCSNDDSVKIIMEFMDTDSRIYYLKTEHPSGGPTLPRNVGIQAAKGRFIAFLDSDDIWLPNKLSTQLPLFINDNVAIVYSDYEKISEEGNRTGRIVKSDPYHHYKSLLCGNELGCLTVVYDTQKIGKRYFKFIGHEDYNLWLDILKEGFIAINTNICLALYRIRKGSVSSNKLRVIKWIWHIYRVEQKKTIWLSLYYSLSDLNKSLFKYLK | not soluble
16 | MGSDKIHHHHHHMDINLYSDRLKLRNLLSRDWDFFLRLHLDKDVNQYIRSIEPESDIVAKFEQRKAVWLFESGDWLTLVIERIDNSQAVGLIGFRCDDAQLRRAEVGYLIAPEQQGLGFASESLLAVTDWGALQFSMHKYIGICAHENTASRKVLEKVGFVLEGTLKQNNCVDGKWSDDCYMGLLTAQRT | not soluble
